T1: PUF4 RNA-binding domain (Saccharomyces cerevisiae, UniProt P25339 537-888)
T1 sequence: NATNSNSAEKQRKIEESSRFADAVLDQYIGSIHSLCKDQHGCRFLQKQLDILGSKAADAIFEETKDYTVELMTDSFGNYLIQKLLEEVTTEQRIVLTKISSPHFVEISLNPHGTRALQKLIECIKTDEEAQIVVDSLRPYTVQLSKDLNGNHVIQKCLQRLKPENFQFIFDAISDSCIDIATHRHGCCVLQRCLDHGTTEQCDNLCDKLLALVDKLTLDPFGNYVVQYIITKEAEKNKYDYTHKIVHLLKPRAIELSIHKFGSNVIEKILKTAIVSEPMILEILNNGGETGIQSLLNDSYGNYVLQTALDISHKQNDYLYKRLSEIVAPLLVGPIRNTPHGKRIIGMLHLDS

B1: Ib_S4_P3E.1_K3.1_C3.1_H3.1_[T1A]_A3.1_[T5A]_F3.1_T3.1 (ssRNA)
RNA: UUUGACAACUGAUCGUUCUUUCUAGUAAAUAUUCUUUCUCGAUCAGUUGUCUUU
B2: Ib_S4_P3E.1_K3.1_C3.1_H3.1_[A4G]_A3.1_[A6C]_F3.1_T3.1 (ssRNA)
RNA: UUUGACAACUGAUCGUUCUUUCUUGUGUCUAUUCUUUCUCGAUCAGUUGUCUUU
B3: Ib_S4_P3E.1_K3.1_C3.1_H3.1_[A4C]_A3.1_[A6G]_F3.1_T3.1 (ssRNA)
RNA: UUUGACAACUGAUCGUUCUUUCUUGUCUGUAUUCUUUCUCGAUCAGUUGUCUUU
B4: Ib_S4_P3E.1_K3.1_C3.1_H3.1_[T1G]_A3.1_[A6C]_F3.1_T3.1 (ssRNA)
RNA: UUUGACAACUGAUCGUUCUUUCUGGUAUCUAUUCUUUCUCGAUCAGUUGUCUUU
B5: Ib_S4_P3E.1_K3.1_C3.1_H3.1_[A4C]_A3.1_[A6C]_F3.1_T3.1 (ssRNA)
RNA: UUUGACAACUGAUCGUUCUUUCUUGUCUCUAUUCUUUCUCGAUCAGUUGUCUUU
B6: Ib_S4_P3E.1_K3.1_C3.1_H3.1_[T1A]_A3.1_[A6C]_F3.1_T3.1 (ssRNA)
RNA: UUUGACAACUGAUCGUUCUUUCUAGUAUCUAUUCUUUCUCGAUCAGUUGUCUUU
B7: Ib_S4_P3E.1_K3.1_C3.1_H3.1_[A4G]_A3.1_[A6T]_F3.1_T3.1 (ssRNA)
RNA: UUUGACAACUGAUCGUUCUUUCUUGUGUUUAUUCUUUCUCGAUCAGUUGUCUUU
B8: Ic_S4_P3E.1_K3.1_C3.1_H3.1_A3.1_[T5C]_[A6T]_F3.1_T3.1 (ssRNA)
RNA: UUUGACAACUGAUCGUUCUUUCUUGUACUUAUUCUUUCUCGAUCAGUUGUCUUU
B9: Ia_S4_P3E.1_K3.1_C3.1_H3.1_[T1G]_A3.1_F3.1_T3.1 (ssRNA)
RNA: UUUGACAACUGAUCGUUCUUUCUGGUAUAUAUUCUUUCUCGAUCAGUUGUCUUU
B10: Ia_S4_P3E.1_K3.1_C3.1_H3.1_A3.1_F3.1_[A8C]_T3.1 (ssRNA)
RNA: UUUGACAACUGAUCGUUCUUUCUUGUAUAUCUUCUUUCUCGAUCAGUUGUCUUU
B11: Ia_S4_P3E.1_K3.1_C3.1_H3.1_A3.1_F3.1_[T7A]_T3.1 (ssRNA)
RNA: UUUGACAACUGAUCGUUCUUUCUUGUAUAAAUUCUUUCUCGAUCAGUUGUCUUU
B12: Ib_S4_P3E.1_K3.1_C3.1_H3.1_[G2A]_A3.1_[A6T]_F3.1_T3.1 (ssRNA)
RNA: UUUGACAACUGAUCGUUCUUUCUUAUAUUUAUUCUUUCUCGAUCAGUUGUCUUU
B13: Ib_S4_P3E.1_K3.1_C3.1_H3.1_[T1A]_A3.1_[A6G]_F3.1_T3.1 (ssRNA)
RNA: UUUGACAACUGAUCGUUCUUUCUAGUAUGUAUUCUUUCUCGAUCAGUUGUCUUU
B14: Ib_S4_P3E.1_K3.1_C3.1_H3.1_[A4G]_A3.1_[T5C]_F3.1_T3.1 (ssRNA)
RNA: UUUGACAACUGAUCGUUCUUUCUUGUGCAUAUUCUUUCUCGAUCAGUUGUCUUU
B15: Ib_S4_P3E.1_K3.1_C3.1_H3.1_[T1A]_A3.1_[A6T]_F3.1_T3.1 (ssRNA)
RNA: UUUGACAACUGAUCGUUCUUUCUAGUAUUUAUUCUUUCUCGAUCAGUUGUCUUU
B16: Ib_S4_P3E.1_K3.1_C3.1_H3.1_[A4C]_A3.1_[T5C]_F3.1_T3.1 (ssRNA)
RNA: UUUGACAACUGAUCGUUCUUUCUUGUCCAUAUUCUUUCUCGAUCAGUUGUCUUU
B17: Ib_S4_P3E.1_K3.1_C3.1_H3.1_[T1G]_A3.1_[A6G]_F3.1_T3.1 (ssRNA)
RNA: UUUGACAACUGAUCGUUCUUUCUGGUAUGUAUUCUUUCUCGAUCAGUUGUCUUU
B18: Ib_S4_P3E.1_K3.1_C3.1_H3.1_[A4C]_A3.1_[T5A]_F3.1_T3.1 (ssRNA)
RNA: UUUGACAACUGAUCGUUCUUUCUUGUCAAUAUUCUUUCUCGAUCAGUUGUCUUU
B19: Ib_S4_P3E.1_K3.1_C3.1_H3.1_[G2T]_A3.1_[A6T]_F3.1_T3.1 (ssRNA)
RNA: UUUGACAACUGAUCGUUCUUUCUUUUAUUUAUUCUUUCUCGAUCAGUUGUCUUU
B20: Ib_S4_P3E.1_K3.1_C3.1_H3.1_[G2A]_A3.1_[T5A]_F3.1_T3.1 (ssRNA)
RNA: UUUGACAACUGAUCGUUCUUUCUUAUAAAUAUUCUUUCUCGAUCAGUUGUCUUU
B21: Ib_S4_P3E.1_K3.1_C3.1_H3.1_[G2A]_A3.1_[T5C]_F3.1_T3.1 (ssRNA)
RNA: UUUGACAACUGAUCGUUCUUUCUUAUACAUAUUCUUUCUCGAUCAGUUGUCUUU
B22: Ia_S4_P3E.1_K3.1_C3.1_H3.1_A3.1_F3.1_[A8G]_T3.1 (ssRNA)
RNA: UUUGACAACUGAUCGUUCUUUCUUGUAUAUGUUCUUUCUCGAUCAGUUGUCUUU
B23: Ib_S4_P3E.1_K3.1_C3.1_H3.1_[A4C]_A3.1_[A6T]_F3.1_T3.1 (ssRNA)
RNA: UUUGACAACUGAUCGUUCUUUCUUGUCUUUAUUCUUUCUCGAUCAGUUGUCUUU
B24: Ib_S4_P3E.1_K3.1_C3.1_H3.1_A3.1_[T5C]_[A6C]_F3.1_T3.1 (ssRNA)
RNA: UUUGACAACUGAUCGUUCUUUCUUGUACCUAUUCUUUCUCGAUCAGUUGUCUUU
B25: Ib_S4_P3E.1_K3.1_C3.1_H3.1_[T1C]_A3.1_[A6T]_F3.1_T3.1 (ssRNA)
RNA: UUUGACAACUGAUCGUUCUUUCUCGUAUUUAUUCUUUCUCGAUCAGUUGUCUUU
B26: Ib_S4_P3E.1_K3.1_C3.1_H3.1_[G2A]_A3.1_[A6G]_F3.1_T3.1 (ssRNA)
RNA: UUUGACAACUGAUCGUUCUUUCUUAUAUGUAUUCUUUCUCGAUCAGUUGUCUUU
B27: Ib_S4_P4E.1_K4.1_C4.1_H4.1_A4.1_F4.1_[T8G]_[A9C]_T4.1 (ssRNA)
RNA: UUUGACAACUGAUCGUUCUUUCUUGUAUAUGCUUCUUUCUCGAUCAGUUGUCUUU
B28: Ib_S4_P4E.1_K4.1_C4.1_H4.1_[T1A]_A4.1_F4.1_[T8A]_T4.1 (ssRNA)
RNA: UUUGACAACUGAUCGUUCUUUCUAGUAUAUAAUUCUUUCUCGAUCAGUUGUCUUU
B29: Ib_S4_P4E.1_K4.1_C4.1_H4.1_[T1G]_A4.1_F4.1_[T8C]_T4.1 (ssRNA)
RNA: UUUGACAACUGAUCGUUCUUUCUGGUAUAUCAUUCUUUCUCGAUCAGUUGUCUUU
B30: Ib_S4_P4E.1_K4.1_C4.1_H4.1_[G2C]_A4.1_F4.1_[T8C]_T4.1 (ssRNA)
RNA: UUUGACAACUGAUCGUUCUUUCUUCUAUAUCAUUCUUUCUCGAUCAGUUGUCUUU
B31: Ib_S4_P4E.1_K4.1_C4.1_H4.1_[T1G]_A4.1_F4.1_[A9G]_T4.1 (ssRNA)
RNA: UUUGACAACUGAUCGUUCUUUCUGGUAUAUUGUUCUUUCUCGAUCAGUUGUCUUU
B32: Ib_S4_P4E.1_K4.1_C4.1_H4.1_A4.1_F4.1_[T8C]_[A9G]_T4.1 (ssRNA)
RNA: UUUGACAACUGAUCGUUCUUUCUUGUAUAUCGUUCUUUCUCGAUCAGUUGUCUUU
B33: Ib_S4_P4E.1_K4.1_C4.1_H4.1_[A4G]_A4.1_F4.1_[T8C]_T4.1 (ssRNA)
RNA: UUUGACAACUGAUCGUUCUUUCUUGUGUAUCAUUCUUUCUCGAUCAGUUGUCUUU
B34: Ib_S4_P4E.1_K4.1_C4.1_H4.1_[T1A]_A4.1_F4.1_[A9G]_T4.1 (ssRNA)
RNA: UUUGACAACUGAUCGUUCUUUCUAGUAUAUUGUUCUUUCUCGAUCAGUUGUCUUU
B35: Ib_S4_P4E.1_K4.1_C4.1_H4.1_[G2A]_A4.1_F4.1_[A9G]_T4.1 (ssRNA)
RNA: UUUGACAACUGAUCGUUCUUUCUUAUAUAUUGUUCUUUCUCGAUCAGUUGUCUUU
B36: Ib_S4_P4E.1_K4.1_C4.1_H4.1_[A4G]_A4.1_F4.1_[T8A]_T4.1 (ssRNA)
RNA: UUUGACAACUGAUCGUUCUUUCUUGUGUAUAAUUCUUUCUCGAUCAGUUGUCUUU
B37: Ib_S4_P4E.1_K4.1_C4.1_H4.1_[T1C]_A4.1_F4.1_[T8C]_T4.1 (ssRNA)
RNA: UUUGACAACUGAUCGUUCUUUCUCGUAUAUCAUUCUUUCUCGAUCAGUUGUCUUU
B38: Ib_S4_P4E.1_K4.1_C4.1_H4.1_[G2C]_A4.1_F4.1_[A9C]_T4.1 (ssRNA)
RNA: UUUGACAACUGAUCGUUCUUUCUUCUAUAUUCUUCUUUCUCGAUCAGUUGUCUUU
B39: Ic_S4_P4E.1_K4.1_C4.1_H4.1_A4.1_F4.1_[T8A]_[A9C]_T4.1 (ssRNA)
RNA: UUUGACAACUGAUCGUUCUUUCUUGUAUAUACUUCUUUCUCGAUCAGUUGUCUUU
B40: Ib_S4_P4E.1_K4.1_C4.1_H4.1_[T1G]_A4.1_F4.1_[T8A]_T4.1 (ssRNA)
RNA: UUUGACAACUGAUCGUUCUUUCUGGUAUAUAAUUCUUUCUCGAUCAGUUGUCUUU
B41: Ib_S4_P4E.1_K4.1_C4.1_H4.1_A4.1_F4.1_[T8A]_[A9G]_T4.1 (ssRNA)
RNA: UUUGACAACUGAUCGUUCUUUCUUGUAUAUAGUUCUUUCUCGAUCAGUUGUCUUU
B42: Ib_S4_P4E.1_K4.1_C4.1_H4.1_[A4C]_A4.1_F4.1_[T8A]_T4.1 (ssRNA)
RNA: UUUGACAACUGAUCGUUCUUUCUUGUCUAUAAUUCUUUCUCGAUCAGUUGUCUUU
B43: Ib_S4_P4E.1_K4.1_C4.1_H4.1_[T1C]_A4.1_F4.1_[A9C]_T4.1 (ssRNA)
RNA: UUUGACAACUGAUCGUUCUUUCUCGUAUAUUCUUCUUUCUCGAUCAGUUGUCUUU
B44: Ib_S4_P4E.1_K4.1_C4.1_H4.1_[T3C]_A4.1_F4.1_[A9G]_T4.1 (ssRNA)
RNA: UUUGACAACUGAUCGUUCUUUCUUGCAUAUUGUUCUUUCUCGAUCAGUUGUCUUU

Target: T1, PUF4 RNA-binding domain
Test: Mg; RNA-MaP; 20 mM Na-HEPES pH 7.4, 30 mM KOAc, 0.75 mM MgCl2, 0.1% Tween-20, 5% glycerol, 0.1 mg/mL BSA, 2 mM DTT; 25 C; 0.0125-409.6 nM protein
Details: tags: N-His6-TEV cleaved; C-SNAP kept, Cy3B-labelled; label: tethered on chip by stalled RNA polymerase

Binder	Kd
UCUCUUUGCAUAUAUCUCUU (ssRNA) [Ia_S1_P3E.1_K3.1_C3.1_H3.1_[T3C]_A3.1_F3.1_T3.1]	> 2300 nM
B1	> 2300 nM
B2	117 nM
B3	40.5 nM
B4	> 2300 nM
B5	1370 nM
B6	> 2300 nM
B7	92.3 nM
B8	16.8 nM
B9	1280 nM
B10	12.3 nM
B11	54.5 nM
B12	1900 nM
B13	225 nM
B14	22.4 nM
B15	> 2300 nM
B16	443 nM
B17	198 nM
B18	1450 nM
B19	> 2300 nM
B20	2080 nM
B21	383 nM
B22	8.32 nM

Binder	Kd
B23	1140 nM
B24	14.8 nM
B25	> 2300 nM
B26	72.2 nM
B27	20.6 nM
B28	1680 nM
B29	> 2300 nM
B30	666 nM
B31	1710 nM
B32	17.1 nM
B33	24.4 nM
B34	2230 nM
B35	329 nM
B36	6.19 nM
B37	652 nM
B38	1530 nM
B39	6.29 nM
B40	1410 nM
B41	9.97 nM
B42	458 nM
B43	1020 nM
B44	> 2300 nM
